± gives the half width of the 95% confidence interval.
Assays:
[1] = folding stability dG unfold (combined trypsin and chymotrypsin); higher = more stable
Description: (§1)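 Folding stability of de novo designed mini-proteins (<80 aa, no Cys; designed by TrROS, TrMRF, ProteinMPNN and the joint model) was measured by cDNA display proteolysis with trypsin and chymotrypsin. Each protease was used at 11 concentrations in a threefold dilution series plus a no-protease condition. K50 was inferred by Bayesian fitting of sequencing counts, and dG unfold was derived against a sequence-predicted unfolded-state K50 (Tsuboyama et al. method). Sequences shown include variable-length N-terminal GS-type padding (SAGGSAGG...) inside a display construct carrying a PA tag. Rows were kept only if the AF2 dimer inter-PAE was >15, to exclude likely homo-oligomers.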

[2] = folding stability dG unfold from chymotrypsin proteolysis; higher = more stable
Description: as §1

Row | Sequence | folding stability dG unfold [1] [kcal/mol] | folding stability dG unfold [2] [kcal/mol]
1 | SAGGSADNENNENQKPKPKPKKKLEVTIPVPLPPGDSLEEAMEQAYNIANHLAQSGKLDEVEISIFSAGGSA [r15_450_TrROS] | < -1 | -0.241 ± 0.4
2 | SAGGSAGGSAKAKVLEVEEKPVGGVNRFKIEVPLENGEPQKFYVLVEVPEDGDEKFAVKPGSAGGSAGGSAG [r3_94_TrMRF] | -0.319 ± 0.18 | 0.1 ± 0.16
3 | SAGGSAGGSAGGPFFMPEQKGTIPADELQKKGGNLTSVEIKVRPWMMELEIEIVYPPGDKSAGGSAGGSAGG [r7_116_TrROS] | 0.0937 ± 0.51 | 1.14 ± 0.36
4 | SAGGSAHPVQFPNGQEFPIRNPKNGKDFKIRMEQEDGPMRAEIEYPGGGKKRRIDGPMSLEEALKQSAGGSA [r15_234_TrROS] | -0.0891 ± 0.24 | 0.509 ± 0.12
5 | SAGMTFEEEFVEEVDGGEMVKTKTLYEYDPSTNSITVLEEEVEKIPLPEVAPAPAPPEAMEERGAPGALSAG [r5_393_JUSTAS] | -0.115 ± 0.09 | 0.254 ± 0.093
6 | SAGGSAGGSDDAVTFTFTSAPTRLLYLDNPKTFPGSATVTLPAGNPDEFRIERFAPDTAELKPSAGGSAGGS [r20_150_TrMRF] | < -1 | -0.427 ± 0.62
7 | SAGGSAGGSPPENMKIKIYNPNGEEQTIPVEGVKIRFNGDTHEIPPGDSIPIPPGIDAIEIEKSAGGSAGGS [r12_779_TrROS] | 0.0926 ± 0.22 | 0.512 ± 0.084
8 | SAGGSAGGSANQVKVEIEIPRMKMERDPDGGYQMEMRPVKIEIEAPMPEEQADDIAKDLIKSAGGSAGGSAG [r3_487_TrROS] | 0.0639 ± 0.16 | 0.579 ± 0.045
9 | SPKPFEMSIQIPGITPQALEKAVELARKDGWVENEIEPDPENNNVQIDVEMRGTPEKMHRAQNAIQEAIKSA [r9_652_TrROS] | -0.386 ± 0.21 | 0.197 ± 0.18
10 | SAGGSAGGSAGGMVRTLDLPNLSEEEIEEIIKKNPNEVYEITFRPPNGPEVTKTIPTHHSAGGSAGGSAGGS [r10_408_JUSTAS] | 0.524 ± 0.18 | 0.84 ± 0.081
11 | SAGGSAGGSARTVPPDLLVRVETPDEERIVPVSELDAFFARHPDVPWRDITVVDPATGAARSAGGSAGGSAG [r3_134_JUSTAS] | -0.675 ± 0.37 | 0.539 ± 0.11
12 | SAGGSAGMVVEPREVVIKLKPPNGPETTLEVELVEVEPDSLVLRNGDTPIVLPPDAEDVEILEVTGSAGGSA [r15_510_JUSTAS] | 0.0501 ± 0.22 | 0.401 ± 0.088
13 | SAGGSSNVGEVTIEIREPVNPERFVDPEYREKAIEEMKEKAEAKAEEIKKENPNVKVTVNISLLEPGSAGGS [r8_183_JUSTAS] | -0.00749 ± 0.36 | 0.659 ± 0.07
14 | SAGGSAGPMPSTVTTLATAPLPDGTLVVTTLERTPDSVTRTTTTYKPADGSPLGTASTTYPAPAALSAGGSA [r15_716_JUSTAS] | -0.0279 ± 0.14 | 0.808 ± 0.15
15 | SAGGSAGGSAGAPSAPRSVPEVRLLNIDIPASADDPESVELARRLARAALENDAVVVINESAGGSAGGSAGG [r11_519_TrMRF] | 0.268 ± 0.11 | 0.826 ± 0.11
16 | SAGGSAGGSAGPPGEPVRIKLKFPNGNPIEIPGKLDDAEEIAEELQSEGFPFSKVEVEKWSAGGSAGGSAGG [r11_946_TrROS] | -0.603 ± 0.51 | -0.257 ± 0.49
17 | SAGGSAGGSGMNVKTIKIYSPEGGETTVPVTGTTVTIGGETVTVTSDVVVPVPPTIKSIEVVGSAGGSAGGS [r12_779_JUSTAS] | 0.277 ± 0.082 | 0.769 ± 0.02
18 | SAGGSAMTEEEFETEFSDPNNSLSTKVKTTRYLEGDTPVVKTTYTTEDPNTGSTYTTEKVTVIPKKSAGGSA [r15_960_JUSTAS] | -0.891 ± 0.29 | -0.218 ± 0.18
19 | SAGGSAGGSAIPPDAPVEVPVRVRVGGEEFDVTATLTARPDGSVGVDVDVDVPADEAEIEPASAGGSAGGSA [r18_428_TrMRF] | < -1 | 0.118 ± 0.32
20 | SAGGSAGGSASEEEKPPKIKRVTINIPEEELRERFPGNPEWAENIAREAAKEGFDEVEIDINSAGGSAGGSA [r18_441_TrROS] | 0.521 ± 0.17 | 0.942 ± 0.12
21 | SAGGSPAPVRRTVTQLLKVGDKLETRVVEEVVWVPEPPPPPVIPIPEDRGLNEEPVPGTRELTFDAGSAGGS [r8_28_JUSTAS] | -0.195 ± 0.37 | 0.268 ± 0.19
22 | SAGGSAGGSAGGPPVLTVTRYPPTPYLTVTLPGGRPVVLPVHPDTPPSDVLRLARELTASAGGSAGGSAGGS [r10_33_TrMRF] | < -1 | -0.163 ± 0.26
23 | SAGGDSLPENVIKIELEFEIETEDGSKIELKLEIYISPDNKIYVKAEATIILPDKPIKIEIDFEFDVSAGGS [r16_563_TrMRF] | 3.59 ± 0.88 | 3.35 ± 0.27
24 | SAGGSAGGSAGGEVPADAVIEERLEVTDVSTGEKRRFRRTVTVEVDPDGSLRVRTEVEEESAGGSAGGSAGG [r7_19_JUSTAS] | -0.215 ± 0.3 | -0.184 ± 0.63

Row | Sequence | folding stability dG unfold [1] [kcal/mol] | folding stability dG unfold [2] [kcal/mol]
25 | SATKTINFDEFNDMMNQGDPPMLRHIIKEAREKDPDKEITIRMPKNPMFRDYIKEAFKEEGYPVKITPHSAG [r14_236_TrROS] | < -1 | -0.494 ± 0.36
26 | SAGGSAGGSAAEPPPPATIEVLVLNEDGYVYRAEIRVNEDGEITIEVEKIPVKPGESLEELSAGGSAGGSAG [r3_437_TrROS_Hall] | 3.79 ± 0.35 | 4 ± 0.23
27 | SAGGSAGGSAGKKFKITEIHPGDNHHHITVKWKRDGKKRERTVMVPSGPEMAKKADIIIISAGGSAGGSAGG [r11_921_TrROS] | < -1 | -0.547 ± 0.48
28 | SAGGSAKLRVAEADFVPGALLEAIEELEKAPAGAEVEVRPGDPLEPKERPVRFVVNEKGELLEVVGSAGGSA [r15_228_TrMRF] | < -1 | -0.619 ± 0.32
29 | SAGGSAGGSEEIYIKVTVEHPNGEKRTHEIERIRDKDGLPIKQIAKELAQEPNVRDVDVEIVKSAGGSAGGS [r12_199_TrROS] | -0.56 ± 0.15 | -0.316 ± 0.072
30 | SAGGSSSVTEISISRSRQRPDASGRWVTEPVLPPGVYAPTTVVHENGVLTFNTVYDGKPVTETIPLSSAGGS [r16_500_JUSTAS] | -0.0547 ± 0.12 | 0.47 ± 0.13
31 | SAGGSAMPRSSVSIVSVERAPDGTVTIPTKTTLTTPDGTVTTEESTVTLEVPPGRELSEEEIKKLLSAGGSA [r15_836_JUSTAS] | 0.53 ± 0.11 | 0.983 ± 0.017
32 | SMEPPVPKIKARLVEVREEGERPRALFEIEEIEDAPPEIEELFKRGAKIEVEIPPDYPLKEDEEIEVDPLSA [r9_557_TrMRF] | 0.0252 ± 0.28 | 0.622 ± 0.15
33 | SAGGSAGGSAGGSGFILKESPDSVLSYDAITGETKKVPSKDVVLEYDPNNGVYTLTVSKSAGGSAGGSAGGS [r4_127_JUSTAS] | 0.168 ± 0.17 | 0.639 ± 0.12
34 | SAGGSAGGSAGGEVITVKRPDGTPFDVTAVLSEDPVVPLLTVEATDDGPVVTLDVPASLLSAGGSAGGSAGG [r7_236_JUSTAS] | -0.172 ± 0.26 | 0.207 ± 0.16
35 | SAGGSAGGSEEVVRTETSTSTTPDGKRVKTTTTTLPTPTTVTTTTVYAPGGEVLETTTTTTAASAGGSAGGS [r12_727_JUSTAS] | < -1 | -0.123 ± 0.2
36 | SAGGSAGGMTIPLPGSVEEIQELLGGPIKEYTEEAPGSGTLTLPNGTPITVERESPELLKEVLRSAGGSAGG [r6_19_JUSTAS] | -0.593 ± 0.37 | -0.0581 ± 0.16
37 | SAGGSAGGSAGSNVVYLGEEVITEVDPYSDKPYTVKVKVYLEPTPEGEKIIEEVLEKELLSAGGSAGGSAGG [r11_113_JUSTAS] | -0.94 ± 0.33 | -0.719 ± 0.29
38 | SAGGSETLELTIEIPGLGQPVSARSTSFDPEKGLWTAEMKSPVPGLRRTLTYDPVTGTVSSTTTLLSAGGSA [r2_147_JUSTAS] | 0.108 ± 0.13 | 0.341 ± 0.13
39 | PEISELTSEESEDGTTFTETKVTLKDPNSNKKINATRKVETEVVGDSTTVTSTLTLPKDKKTINESYTISPS [r1_374_JUSTAS] | < -1 | -0.591 ± 0.61
40 | SAGGSTVTFSSEEEIAKLKPVLKKGNPTTLYLNEVRERLLPNGEPVLVPRDVTRTITLVNGKLTESETSAGG [r13_835_JUSTAS] | < -1 | -0.685 ± 0.18
41 | SMEEKEEVLSVEVDPVGEVVVTRTLVKKSAVDPTNPNNPVPLSLEEIVEPVPLPPPVPLPVPGNPRFEAASA [r9_357_JUSTAS] | 0.154 ± 0.081 | 0.77 ± 0.072
42 | SAGGSAGGSAGGSATVTTTTTSGATITPPALTELPSGYVAVVTPTGDTLNVVIAPKALLSAGGSAGGSAGGS [r4_279_JUSTAS] | -0.966 ± 0.49 | 0.214 ± 0.26
43 | SAGGSAITLEDIRNMPIEEIAKEMQDHFPNGQKQPIEFEYPDGRKLRIKAEYPPNGEPKIDIEPVDSAGGSA [r15_857_TrROS] | < -1 | 0.139 ± 0.14
44 | SAGGSAGGSAGGKIEIDNIERFRPPNGNRYYKMTIRVEGNGKEREIWAPADDADNFKIESAGGSAGGSAGGS [r10_326_TrROS] | -0.474 ± 0.25 | -0.0266 ± 0.22
45 | SAGGSAGGSAGMLTTKTITLPHAPDDPAAFRAAVLKGLPPELPVLSVDYDPATGTGTVVASAGGSAGGSAGG [r11_698_JUSTAS] | < -1 | 0.0666 ± 0.31
46 | SSTTTTTTDPSGYTYSTTVTTHPDSTTTTTGRVTVEKVGDRPVARTTTTTTTVSPGGATTTTTSTTTTLPSA [r9_69_JUSTAS] | 0.0549 ± 0.082 | 0.589 ± 0.1
47 | SGMEEIKIEVLSTETDESGTTYTETKIVLPDGKVIEATMTTTTVPDAAGNPVAVETLTLKDKTYTRTIPLSA [r9_271_JUSTAS] | 0.101 ± 0.17 | 0.448 ± 0.12

Reference: the supplement of paper PMC12764529
